Changes are numbered by the printed parent chain.
Key:
[1] = target: T1, VLDLR CR6-8 (human, UniProt P98155 235-358); test: solid-phase binding assay, CR protein coated on plate, anti-RAP detection
T1 construct: range 235-358; also called V CR6-8; not shown: N-terminal hexahistidine and S-peptide tags of pET30(+)a

[2] = target: T2, LRP2 CR89 (human, UniProt P98164 1025-1102); test: as above
T2 construct: domain: CR89; also called YVWR; L2 CR89; not shown: N-terminal hexahistidine and S-peptide tags of pET30(+)a

[3] = target: T3, LRP1 CR3-5 (human); test: as above
T3 construct: range 852-973; also called L1 CR3-5

[4] = target: T4, LRP2 CR89 Y1042W V1047D R1088D (human, UniProt P98164 1022-1105); test: solid-phase assay; OD at the highest ligand concentration as percent of the highest OD of all ligands
T4 construct: also called WDWD
T4 chain: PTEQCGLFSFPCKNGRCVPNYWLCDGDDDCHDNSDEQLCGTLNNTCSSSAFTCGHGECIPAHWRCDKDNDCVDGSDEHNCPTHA
Description: (§1) Solid phase binding assays-Purified, refolded CR protein (1 μg) was bound to Nunc Maxisorp™ 96-well plates in TBS pH 8 supplemented with 5 mM CaCl₂ (TBSC) overnight at 4° C. Wells were washed with TBSC and then blocked with TBSC containing 2% bovine serum albumin (BSA). […] Control wells contained no added ligand. As an additional control, to determine whether the absence of calcium affected binding, 10 mM EGTA was included in the incubation medium for some samples. […] Excess primary antibody was removed and wells washed before incubation with the secondary antibody, HRP-conjugated goat anti rabbit IgG (Bio-Rad). After washing, TMB substrate solutions (Bio-Rad) were added to detect HRP. Color development was stopped with 1N HCl. Absorption at 450 nm was measured with a microplate spectrophotometer (Molecular Devices). Data were plotted and Kd values derived by non-linear regression with the assumption of single-site binding (GraphPad Prism).
(§2) To test this idea, mutant LRP2 CR89 were prepared in which the native, non-canonical residues at these positions were sequentially substituted with the non-native, canonical residues. As defined above, the A, C, A′, C′ string for LRP2 CR89 is YVWR. Mutants included LRP2 CR89 Y1042W (WVWR), LRP2 CR89 V1047D (YDWR), LRP2 CR89 R1088D (YVWD), LRP2 CR89 V1047D R1088D (YDWD), LRP2 CR89 Y1042W V1047D R1088D (WDWD), LRP2 CR89 Y1042W V1047D (WDWR), LRP2 CR89 Y1042W R1088D (WVWD).

[5] = target: T5, LRP2 CR89 Y1042W R1088D (human, UniProt P98164 1022-1105); test: as above
T5 construct: also called WVWD
T5 chain: T4 chain with D27V
Description: as §1, §2

[6] = target: T6, LRP2 CR89 Y1042W V1047D (human, UniProt P98164 1022-1105); test: as above
T6 construct: also called WDWR
T6 chain: T4 chain with D68R
Description: as §1, §2

[7] = target: T7, LRP2 CR89 V1047D R1088D (human, UniProt P98164 1022-1105); test: as above
T7 construct: also called YDWD
T7 sequence: T4 chain with W22Y
Description: as §1, §2

[8] = target: T8, LRP2 CR89 V1047D (human, UniProt P98164 1022-1105); test: as above
T8 construct: also called YDWR
T8 sequence: T4 chain with W22Y, D68R
Description: as §1, §2

[9] = target: T9, LRP2 CR89 R1088D (human, UniProt P98164 1022-1105); test: as above
T9 construct: also called YVWD
Description: as §1, §2

[10] = target: T2, LRP2 CR89; test: as above
Description: as §1, §2

[11] = target: T10, LRP2 CR3031 (human, UniProt P98164 3677-3755); test: solid-phase assay on coated CR protein, each ligand at 80 nM, blank-corrected absorbance
T10 construct: domain: CR3031; Its cloning is not described in the methods; not shown: N-terminal hexahistidine and S-peptide tags of pET30(+)a
Description: (§3) Samples were tested twice, in duplicate, and values combined. Means and standard deviations were then calculated. Blank values obtained from wells incubated in the absence of ligand were used to correct absorbance data.
as §1

[12] = target: T11, MAT CR12 (human, UniProt Q9Y5Y6 452-524); test: as above
T11 construct: also called ST14 CR12; matriptase CR12
T11 sequence: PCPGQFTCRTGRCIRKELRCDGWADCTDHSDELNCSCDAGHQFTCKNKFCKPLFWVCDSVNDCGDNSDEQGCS
Description: as §3, §1

[13] = target: T12, LRP2 CR2728 (human, UniProt P98164 3552-3631); test: as above
T12 construct: domain: CR2728; Its cloning is not described in the methods; not shown: N-terminal hexahistidine and S-peptide tags of pET30(+)a
T12 sequence (looked up): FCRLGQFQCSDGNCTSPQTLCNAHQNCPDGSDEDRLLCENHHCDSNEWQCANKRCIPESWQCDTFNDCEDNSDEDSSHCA
Description: as §3, §1

[14] = target: T3, LRP1 CR3-5; test: solid-phase assay on coated CR protein, single-site non-linear fit
Description: Data were plotted and fitted by non-linear regression with the assumption of a single binding site (GraphPad Prism). Kd values with standard deviations were derived from the regression analysis.
as §1

[15] = target: T9, LRP2 CR89 R1088D; test: solid-phase assay on coated CR protein, anti-RAP detection, A450
Description: as §1, §2

[16] = target: T2, LRP2 CR89; test: solid-phase assay; OD at the highest ligand concentration as percent of the highest OD of all ligands; remark: listed apart in the source
Description: as §1

[17] = target: T3, LRP1 CR3-5; test: as above
Description: as §1

[18] = target: T3, LRP1 CR3-5; test: apparent Kd of the variant for the CR pair used in selection; no unit printed in Table 4, nM per Table 2 and paragraph 292

T3 sequence (Q07954 852-973): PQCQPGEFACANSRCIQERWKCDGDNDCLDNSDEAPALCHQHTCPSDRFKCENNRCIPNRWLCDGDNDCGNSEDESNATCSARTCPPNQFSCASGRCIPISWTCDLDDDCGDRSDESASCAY
T2 sequence (P98164 1025-1102): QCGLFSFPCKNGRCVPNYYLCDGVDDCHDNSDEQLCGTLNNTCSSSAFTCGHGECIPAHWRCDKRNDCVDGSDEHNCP
T10 sequence (P98164 3677-3755): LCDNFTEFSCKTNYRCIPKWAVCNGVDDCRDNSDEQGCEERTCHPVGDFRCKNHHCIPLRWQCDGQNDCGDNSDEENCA

B1: RAP d3 (wild-type domain 3 of human RAP, amino acids 201-319 of mature RAP) (ligand)
chain: LDRLRRVSHQGYSTEAEFEEPRVIDLWDLEQSANLTDKELEAFREELKHFEAKIEKHNHYQKQLEIAHEKLRHAESVGDGERVSRSREKHALLEGRTKELGYTVKKHLQDLSGRISRAR
notes: Expressed in E. coli from pET30(+)a, Ni-NTA purified; also called wild-type RAP d3; recombinant RAP d3; not shown: N-terminal hexahistidine and S-peptide tags of pET30(+)a
Kd [1]: > 300 nM
Kd [2]: > 300 nM
Kd [3]: 11 nM
% max bind [4]: 15%
% max bind [5]: 16%
% max bind [6]: 11%
% max bind [7]: 6%
% max bind [8]: 6%
% max bind [9]: 7%
% max bind [10]: 7%
binding result [11]: no binding (tested: 80 nM)
binding result [12]: no binding (tested: 80 nM)
binding result [13]: no binding (tested: 80 nM)
Kd [14]: 16 nM
binding result [15]: no binding (tested: 100 nM)
% max [16]: 5%
% max [17]: 76%
Kd [18]: 16 nM
